Test in all cases: EMSA
In general terms: A gel shift assay detects complexes by their altered migration in electrophoresis.

One data set has as its system OCT4-DBD (Homo sapiens).
A further data set concerns OCT4-WT (Homo sapiens).
The subject of data set [1] is OCT4-del-73 (Homo sapiens).

With LIN28B-DNA, the Kd (in general, the equilibrium constant for the complex coming apart) was 4.53 nM in the data set on OCT4-DBD (Homo sapiens), 1.44 nM in the data set on OCT4-WT (Homo sapiens) and 0.85 nM in data set [1].

In data set [1], LIN28B-nucleosome displayed a Kd of 0.949 nM.

These data come from publication PMC7611526.
